Where two headings read alike, the source gives them in different places.
Key:
[1] = target: T1, Human TNFR2 mFc (manufacturer: Kaixia, CAT: TN-HM3R2) (human, UniProt P20333 23-257); test: blocking ELISA: human TNFR2 mFc coated, antibody titrated together with human TNF alpha His (blocked ligand), anti-His detection, OD450
T1 construct: treated as one molecule; also called Human TNFR2 mFC (KaKa, CAT: TNF-HM3R2); human TNFR2 mFC protein; not shown: mFc part
T1 sequence (looked up): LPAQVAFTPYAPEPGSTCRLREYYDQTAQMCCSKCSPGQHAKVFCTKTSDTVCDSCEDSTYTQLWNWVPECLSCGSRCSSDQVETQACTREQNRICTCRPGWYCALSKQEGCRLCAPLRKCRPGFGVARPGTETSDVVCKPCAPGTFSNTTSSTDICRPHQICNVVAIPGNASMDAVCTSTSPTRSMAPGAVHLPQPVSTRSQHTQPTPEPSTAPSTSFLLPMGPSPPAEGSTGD
Description: (§1) The coating solution was poured off. Each well was washed with 1×PBST at 300 μL, washed 4 times with a plate washer, and patted dry on a flat paper. It was blocked with 3% skim milk powder at 300 μL/well, and incubated at 37° C. for 1 h. The blocking solution was poured off, washed 4 times with a plate washer, and patted dry on a flat paper. Negative control and positive control were set up. […] The positive control and antibody were diluted diluted to 100 nM with 3% skim milk powder as the starting concentration, and then diluted by 3-fold gradient (11 gradients in total), and a blank well was set up and only the diluent was added. […] The liquid in the well was discarded, washed 4 times with a plate washer, and patted dry on a flat paper. The anti his antibody (Abcam, Cat: ab1187) was diluted with 3% skim milk powder at 1:5000, 100 μL was added to each well, and incubated at 37° C. for 1 h. It was washed 6 times with a plate washer, and patted dry on a flat paper. TMB color developing solution was added at 100 μL/well, and wrapped with aluminum foil. Color development was performed at 37° C. in the dark for 8 min. Termination solution 1M HCl was added to terminate the color development reaction at 100 μL/well. Readings were taken at 450 nm on an ELISA reader.

[2] = target: T1, Human TNFR2 mFc (manufacturer: Kaixia, …); test: as above; remark: listed apart in the source
Description: as §1

[3] = target: T2, Human 4-1BB His (manufacturer: Acro, CAT: 41B-H5258) (human, UniProt Q07011 24-186); test: ELISA, human 4-1BB His coated at 0.2 ug/mL, anti-human IgG detection, OD450
T2 construct: Bought protein; also called human 4-1BB protein; 4-1BB protein; not shown: His tag
Description: The coating solution was poured off. Each well was washed with 1×PBST at 300 μL, washed 4 times with a plate washer, and patted dry on a flat paper. It was blocked with 3% skim milk powder at 300 μL/well, and incubated at 37° C. for 1 h. The blocking solution was poured off, washed 4 times with a plate washer, and patted dry on a flat paper. Negative control and positive control were set up. […] The positive control and antibody were diluted to 10 μg/mL with 3% skim milk powder as the starting concentration, and then diluted by 3-fold gradient (11 gradients in total), and a blank well was set up and only the diluent was added. It was incubated at 37° C. for 1 h at 100 μL/well. The liquid in the well was discarded, washed 4 times with a plate washer, and patted dry on a flat paper. […] It was washed 6 times with a plate washer, and patted dry on a flat paper. TMB color developing solution was added at 100 μL/well, and wrapped with aluminum foil. Color development was performed at 37° C. in the dark for 8 min. Termination solution 1M HCl was added to terminate the color development reaction at 100 μL/well. Readings were taken at 450 nm on an ELISA reader.

[4] = target: T1, Human TNFR2 mFc (manufacturer: Kaixia, …); test: bridging ELISA: human TNFR2 mFc coated, antibody titrated, then human 4-1BB His 0.3 ug/mL, HRP anti-His detection, OD450
Description: (§2) The coating solution was poured off. Each well was washed with 1×PBST at 300 μL, washed 4 times with a plate washer, and patted dry on a flat paper. It was blocked with 3% skim milk powder at 300 μL/well, and incubated at 37° C. for 1 h. The blocking solution was poured off, washed 4 times with a plate washer, and patted dry on a flat paper. […] Starting at 50 nM, which was used as the initial concentration for 3-fold dilution, a total of 10 gradients were diluted, and a blank well was set up and only the diluent was added. It was incubated at 37° C. for 1 h at 100 μL/well. The liquid in the well was discarded, washed 4 times with a plate washer, and patted dry on a flat paper. Human 4-1BB His (manufacturer: Acro, CAT: 41B-H5258, LOT: 198-2146F1-W6) was diluted to 0.3 μg/mL, 100 μL was added to each well, and incubated at room temperature for 1 h. […] It was washed 6 times with a plate washer, and patted dry on a flat paper. TMB color developing solution was added at 100 μL/well, and wrapped with aluminum foil. Color development was performed at 37° C. in the dark for 8 min. Termination solution 1M HCl was added to terminate the color development reaction at 100 μL/well. Readings were taken at 450 nm on an ELISA reader.

[5] = target: T3, Human 4-1BB Fc (manufacturer: Acro, CAT: 41B-H5258) (human, UniProt Q07011 24-186); test: bridging ELISA: human 4-1BB Fc coated, antibody titrated, then human TNFR2 His 0.3 ug/mL, HRP anti-His detection, OD450
T3 construct: not shown: Fc part
Description: as §2, with “paper.” for “paper. Human 4-1BB His (manufacturer: Acro, CAT: 41B-H5258, LOT: 198-2146F1-W6) was diluted to 0.3 μg/mL, 100 μL was added to each well, and incubated at room temperature for 1 h.”

T2 sequence (Q07011 24-186 limits assumed): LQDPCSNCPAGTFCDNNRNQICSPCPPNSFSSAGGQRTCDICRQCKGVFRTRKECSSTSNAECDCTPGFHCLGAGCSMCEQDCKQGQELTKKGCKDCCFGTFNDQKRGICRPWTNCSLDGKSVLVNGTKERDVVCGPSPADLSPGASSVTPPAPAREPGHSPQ
T3 sequence (Q07011 24-186 limits assumed): as above

B1: Positive control (anti-TNFR2; antibody sequence variable region consists of SEQ ID NO: 25) (VHH, not shown: a dimerising Fc or GST)
VHH: EVQLVESGGGLVQPGGSLRLSCAASGSRLDYYAVAWFRQAPGKEREEVSCITYSGGSTNYAESVKGRFTISRDNSKNTLYLQMNSLRAEDTAVYYCTTEPYGSSCPLSGYDTWGQGTLVTVSS
notes: also called positive control 2
[1]
  IC50 (read off the curve): ~2 nM
[2]
  IC50 (read off the curve): ~2 nM

B2: TB-C1 (bispecific antibody, human IgG1, kappa)
light: DIQMTQSPSSLSASLGDRVTISCSASQGISNYLNWYQQKPDGTVKLLIYYTSTLHSGVPSRFSGSGSGTDYTLTISSLQPEDIATYYCQQYSKLPWTFGGGTKLEIKRTVAAPSVFIFPPSDEQLKSGTASVVCLLNNFYPREAKVQWKVDNALQSGNSQESVTEQDSKDSTYSLSSTLTLSKADYEKHKVYACEVTHQGLSSPVTKSFNRGEC
heavy: not shown
notes: also called antibody TB-C1
[3]
  EC50 (read off the curve): ~0.1 nM
[4]
  EC50 (read off the curve): ~0.06 nM

B3: TB-A (bispecific antibody, human IgG1, kappa)
light: B2 light
heavy: not shown
notes: also called antibody TB-A
[5]
  EC50 (read off the curve): ~0.6 nM

From patent US20260055201A1 (SHENGHE CHINA BIOPHARMACEUTICAL, published 2026)
